Assay results: the supplement of paper PMC9233669
Variants at the floor of the assay were thinned out.

Experiments:
biotinyl-Trp-oxazolone = assay: self-aminoacylation, catalytic enhancement (BWO) (fold over background); higher = more active; k-Seq, kA / k0A0; sequences stand for … in GGGAAUGGAUCCACAUCUACGAAUUC…UUCACUGCAGACUUGACGAAGCUG
Outline: (§1)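 Working in 50 μL HEPES/NaCl/KCl/MgCl2/CaCl2 buffer with 5% acetonitrile at pH 6.9–7.0, mutagenized RNA pools (0.43 μM; 21-nt variable region) were reacted with 2–1250 μM of each biotinyl-aminoacyl-oxazolone for 90 minutes at room temperature. Streptavidin capture followed, with quantification by triplicate qPCR and Illumina sequencing. Catalytic enhancement is reported as median kA over the uncatalyzed rate, the low-activity peak of a bimodal Gaussian fit to the data.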

biotinyl-Ile-oxazolone = assay: self-aminoacylation, catalytic enhancement (BIO) (fold over background); higher = more active; k-Seq, kA / k0A0; sequences stand for … in GGGAAUGGAUCCACAUCUACGAAUUC…UUCACUGCAGACUUGACGAAGCUG
Outline: as §1

biotinyl-Met-oxazolone = assay: self-aminoacylation, catalytic enhancement (BMO) (fold over background); higher = more active; k-Seq, kA / k0A0; sequences stand for … in GGGAAUGGAUCCACAUCUACGAAUUC…UUCACUGCAGACUUGACGAAGCUG
Outline: as §1

biotinyl-Leu-oxazolone = assay: self-aminoacylation, catalytic enhancement (BLO) (fold over background); higher = more active; k-Seq, kA / k0A0; sequences stand for … in GGGAAUGGAUCCACAUCUACGAAUUC…UUCACUGCAGACUUGACGAAGCUG
Outline: as §1

biotinyl-Phe-oxazolone = assay: self-aminoacylation, catalytic enhancement (BFO) (fold over background); higher = more active; k-Seq, kA / k0A0; sequences stand for … in GGGAAUGGAUCCACAUCUACGAAUUC…UUCACUGCAGACUUGACGAAGCUG
Outline: as §1

biotinyl-Val-oxazolone = assay: self-aminoacylation, catalytic enhancement (BVO) (fold over background); higher = more active; k-Seq, kA / k0A0; sequences stand for … in GGGAAUGGAUCCACAUCUACGAAUUC…UUCACUGCAGACUUGACGAAGCUG
Outline: as §1

Sequence | self-aminoacylation (biotinyl-Trp-oxazolone) | self-aminoacylation (biotinyl-Ile-oxazolone) | self-aminoacylation (biotinyl-Met-oxazolone) | self-aminoacylation (biotinyl-Leu-oxazolone) | self-aminoacylation (biotinyl-Phe-oxazolone) | self-aminoacylation (biotinyl-Val-oxazolone)
CUACUUCAAACACUCGGUCUU [Fam1A.1 aminoacylation ribozyme variant] | 1.18 | 1.71 | 1.81 | 1.49 | 1.56 | 1.74
CUACUUCAAACAGUCGGCCUG [Fam1A.1 aminoacylation ribozyme variant] | 1.39 | 1.63 | 1.77 | 1.78 | 2.1 | 1.71
CUACUUCAAACAGUCGGUCUA [Fam1A.1 aminoacylation ribozyme variant] | 0.576 | 0.938 | 0.856 | 0.817 | 0.734 | 0.893
CUACUUCAAACAGUCGGUCUC [Fam1A.1 aminoacylation ribozyme variant] | 0.456 | 0.903 | 0.765 | 1.02 | 0.732 | 0.8
CUACUUCAAACAGUGGGUCUG [Fam1A.1 aminoacylation ribozyme variant] | 0.989 | 0.995 | 0.764 | 0.935 | 0.834 | 0.823
CUACUUCAAACAUGCGGUCUG [Fam1A.1 aminoacylation ribozyme variant] | 0.769 | 1.27 | 1.39 | 1.61 | 3.21 | 1.34
CUACUUCAAACAUUCGCUCUG [Fam1A.1 aminoacylation ribozyme variant] | 0.81 | 1.07 | 1.12 | 1.24 | 3.16 | 0.985
CUACUUCAAACAUUCGGUCCG [Fam1A.1 aminoacylation ribozyme variant] | 1.52 | 0.823 | 0.978 | 0.959 | 0.323 | 0.884
CUACUUCAAACCAUCAGUCUG [Fam1A.1 aminoacylation ribozyme variant] | 0.593 | 0.847 | 0.695 | 0.762 | 1.08 | 0.768
CUACUUCAAACCAUCGGUCUG [Fam1A.1 aminoacylation ribozyme variant] | 0.673 | 0.794 | 0.702 | 0.661 | 0.956 | 0.833
CUACUUCAAACCAUGGGUCUG [Fam1A.1 aminoacylation ribozyme variant] | 0.564 | 0.966 | 0.765 | 0.827 | 0.455 | 0.776
CUACUUCAAACCAUUGGUCUG [Fam1A.1 aminoacylation ribozyme variant] | 0.564 | 0.883 | 0.726 | 0.782 | 1.03 | 0.891
CUACUUCAAACGAUCGGUAUG [Fam1A.1 aminoacylation ribozyme variant] | 0.727 | 0.544 | 0.585 | 0.591 | 0.588 | 0.675
CUACUUCAAACGAUCGGUCAG [Fam1A.1 aminoacylation ribozyme variant] | 0.625 | 0.621 | 0.36 | 0.566 | 0.808 | 0.535
CUACUUCAAACGAUCGUUCUG [Fam1A.1 aminoacylation ribozyme variant] | 0.447 | 0.493 | 0.442 | 0.423 | 0.639 | 0.632
CUACUUCAAACUAACGGUCUG [Fam1A.1 aminoacylation ribozyme variant] | 0.665 | 0.778 | 0.787 | 0.796 | 0.924 | 0.75
CUACUUCAAACUAUCAGUCUG [Fam1A.1 aminoacylation ribozyme variant] | 0.813 | 1.06 | 0.975 | 0.801 | 1.25 | 1.05
CUACUUCAAACUAUCCGUCUG [Fam1A.1 aminoacylation ribozyme variant] | 0.852 | 0.955 | 0.889 | 0.936 | 0.844 | 1.08
CUACUUCAAACUAUCGGUCGG [Fam1A.1 aminoacylation ribozyme variant] | 1.05 | 1.05 | 1.02 | 1.01 | 0.997 | 0.893
CUACUUCAAACUAUCGGUCUC [Fam1A.1 aminoacylation ribozyme variant] | 0.598 | 0.833 | 0.747 | 0.759 | 1.19 | 0.885
CUACUUCAAACUAUCUGUCUG [Fam1A.1 aminoacylation ribozyme variant] | 0.738 | 0.869 | 0.846 | 0.767 | 1.09 | 0.867
CUACUUCAAAGAAUCGGUCAG [Fam1A.1 aminoacylation ribozyme variant] | 0.818 | 0.652 | 0.574 | 0.601 | 1.48 | 0.658
CUACUUCAAAGAAUCGGUCCG [Fam1A.1 aminoacylation ribozyme variant] | 0.384 | 0.718 | 0.638 | 0.866 | 0.351 | 0.607
CUACUUCAAAGAAUCGGUCUG [Fam1A.1 aminoacylation ribozyme variant] | 4.78 | 0.777 | 0.759 | 0.883 | 6.52 | 0.76
CUACUUCAAAGACUCGGUCUG [Fam1A.1 aminoacylation ribozyme variant] | 1.35 | 1.12 | 1.16 | 1.01 | 3.52 | 1.2
CUACUUCAAAGAGUCGGUCUG [Fam1A.1 aminoacylation ribozyme variant] | 0.754 | 0.695 | 1.13 | 0.849 | 0.46 | 0.835

Sequence | self-aminoacylation (biotinyl-Trp-oxazolone) | self-aminoacylation (biotinyl-Ile-oxazolone) | self-aminoacylation (biotinyl-Met-oxazolone) | self-aminoacylation (biotinyl-Leu-oxazolone) | self-aminoacylation (biotinyl-Phe-oxazolone) | self-aminoacylation (biotinyl-Val-oxazolone)
CUACUUCAAAUAAUCGGUCGG [Fam1A.1 aminoacylation ribozyme variant] | 5.93 | 1.07 | 0.909 | 1.13 | 6.6 | 0.832
CUACUUCAAAUAAUCGGUCUA [Fam1A.1 aminoacylation ribozyme variant] | 3.51 | 0.795 | 0.659 | 0.727 | 7.72 | 0.78
CUACUUCAAAUUAUCGGUCUG [Fam1A.1 aminoacylation ribozyme variant] | 0.849 | 1.12 | 1.01 | 0.945 | 0.806 | 1.11
CUACUUCAACCAAUCGAUCUG [Fam1A.1 aminoacylation ribozyme variant] | 1.04 | 0.763 | 0.62 | 0.598 | 1.98 | 0.665
CUACUUCAACCAAUCGCUCUG [Fam1A.1 aminoacylation ribozyme variant] | 1.43 | 0.872 | 0.806 | 0.843 | 1.4 | 0.729
CUACUUCAACCAAUCGGUCUG [Fam1A.1 aminoacylation ribozyme variant] | 18.7 | 0.988 | 1.07 | 1.48 | 33.1 | 1.04
CUACUUCAACCAAUCUGUCUG [Fam1A.1 aminoacylation ribozyme variant] | 0.777 | 0.597 | 0.504 | 0.485 | 2.12 | 0.592
CUACUUCAACCAGUCGGUCUG [Fam1A.1 aminoacylation ribozyme variant] | 0.564 | 0.712 | 0.662 | 0.788 | 0.542 | 0.833
CUACUUCAAGCAAGCGGUCUG [Fam1A.1 aminoacylation ribozyme variant] | 0.849 | 1.12 | 0.867 | 0.958 | 0.897 | 0.854
CUACUUCAAGCAAUCCGUCUG [Fam1A.1 aminoacylation ribozyme variant] | 1.25 | 1 | 0.833 | 0.941 | 1.86 | 1.17
CUACUUCAAGCAAUCGGACUG [Fam1A.1 aminoacylation ribozyme variant] | 2.58 | 0.86 | 0.714 | 1.04 | 4.71 | 0.861
CUACUUCAAGCAAUCGGCCUG [Fam1A.1 aminoacylation ribozyme variant] | 16.4 | 1.85 | 1.74 | 2.44 | 18.9 | 1.6
CUACUUCAAGCAAUGGGUCUG [Fam1A.1 aminoacylation ribozyme variant] | 1.09 | 1.02 | 0.934 | 0.852 | 0.863 | 0.998
CUACUUCAAUCAAUCCGUCUG [Fam1A.1 aminoacylation ribozyme variant] | 0.695 | 0.758 | 0.664 | 0.694 | 0.657 | 0.672
CUACUUCAAUCAAUCGGGCUG [Fam1A.1 aminoacylation ribozyme variant] | 7.13 | 1.41 | 1.31 | 1.38 | 8.36 | 1.24
CUACUUCAAUCAAUCGGUAUG [Fam1A.1 aminoacylation ribozyme variant] | 6.33 | 0.797 | 0.961 | 0.88 | 10.8 | 0.848
CUACUUCAAUCAAUCGUUCUG [Fam1A.1 aminoacylation ribozyme variant] | 0.428 | 0.491 | 0.379 | 0.472 | 0.629 | 0.596
CUACUUCAAUCCAUCGGUCUG [Fam1A.1 aminoacylation ribozyme variant] | 0.728 | 0.857 | 0.738 | 0.737 | 0.866 | 0.821
CUACUUCACACAAACGGUCUG [Fam1A.1 aminoacylation ribozyme variant] | 0.616 | 0.771 | 0.626 | 0.746 | 1.07 | 0.746
CUACUUCACACAAUAGGUCUG [Fam1A.1 aminoacylation ribozyme variant] | 0.394 | 0.6 | 0.474 | 0.469 | 1.01 | 0.605
CUACUUCACACAAUCCGUCUG [Fam1A.1 aminoacylation ribozyme variant] | 0.495 | 0.859 | 0.913 | 0.81 | 0.747 | 0.854
CUACUUCACACAAUCGGACUG [Fam1A.1 aminoacylation ribozyme variant] | 0.442 | 0.882 | 0.609 | 0.673 | 0.755 | 0.736
CUACUUCACACAAUCGGUGUG [Fam1A.1 aminoacylation ribozyme variant] | 0.513 | 1.07 | 1.65 | 1.22 | 0.67 | 1.25
CUACUUCACACAUUCGGUCUG [Fam1A.1 aminoacylation ribozyme variant] | 1.69 | 1.16 | 1.13 | 1.36 | 1.72 | 1.1
CUACUUCAGACAACCGGUCUG [Fam1A.1 aminoacylation ribozyme variant] | 0.969 | 0.968 | 1.22 | 1.03 | 0.886 | 1.28
